Results on eight substances are retold here after patent publication US7122360.

Data set [1] concerns GST-MAPKAP-K1a [GST: P08515].
A further data set concerns T1, CREBtide.
T1 sequence: EILSRRPSYRK

A further data set relates to T2, Crosstide.
T2 sequence: GRPRTSSFAEG

Data set [2] relates to T3, KKRNRTLSVA with the arginine at position n-3 changed to lysine.
T3 sequence: KKRNKTLSVA

Data set [3] has as its system KKRNRTLSVA with the arginine at position n-5 changed to leucine.
Another data set has as its system T4, peptide KKRNRTLSVA
T4 sequence: KKRNRTLSVA

Sequence of GST-CREB [GST: P08515] (P08515 whole entry, looked up): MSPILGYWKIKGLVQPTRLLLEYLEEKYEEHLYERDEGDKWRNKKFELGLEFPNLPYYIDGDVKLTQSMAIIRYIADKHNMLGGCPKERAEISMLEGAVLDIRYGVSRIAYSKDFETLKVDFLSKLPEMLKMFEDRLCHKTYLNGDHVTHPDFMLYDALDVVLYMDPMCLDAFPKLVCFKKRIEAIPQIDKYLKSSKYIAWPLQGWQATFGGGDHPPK
Sequence of GST-MAPKAP-K1a [GST: P08515] (P08515 whole entry, looked up): as above
Sequence of GST-MSK1 (chain, as listed by the source): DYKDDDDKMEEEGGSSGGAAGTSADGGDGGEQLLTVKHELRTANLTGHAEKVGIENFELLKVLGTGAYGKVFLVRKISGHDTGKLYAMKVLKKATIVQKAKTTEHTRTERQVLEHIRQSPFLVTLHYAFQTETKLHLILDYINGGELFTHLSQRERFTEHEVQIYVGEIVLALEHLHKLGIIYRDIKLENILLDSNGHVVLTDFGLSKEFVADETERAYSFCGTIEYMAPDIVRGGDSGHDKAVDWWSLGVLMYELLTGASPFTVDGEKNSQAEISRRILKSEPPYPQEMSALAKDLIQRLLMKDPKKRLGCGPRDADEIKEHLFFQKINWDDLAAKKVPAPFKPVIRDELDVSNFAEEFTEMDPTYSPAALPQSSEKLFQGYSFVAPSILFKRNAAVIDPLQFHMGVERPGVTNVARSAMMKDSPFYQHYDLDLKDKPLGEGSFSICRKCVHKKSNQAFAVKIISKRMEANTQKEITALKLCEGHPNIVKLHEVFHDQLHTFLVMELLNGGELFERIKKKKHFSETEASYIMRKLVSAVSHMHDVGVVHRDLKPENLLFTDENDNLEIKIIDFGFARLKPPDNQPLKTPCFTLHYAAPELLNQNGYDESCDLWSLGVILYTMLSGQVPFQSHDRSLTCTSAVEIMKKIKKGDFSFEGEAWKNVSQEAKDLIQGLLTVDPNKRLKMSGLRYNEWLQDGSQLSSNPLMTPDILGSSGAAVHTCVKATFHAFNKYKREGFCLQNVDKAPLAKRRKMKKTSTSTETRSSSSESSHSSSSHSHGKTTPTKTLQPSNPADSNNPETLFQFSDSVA

For activated GST-SAPK2a/p38a, the “activation in vitro (activity towards Crosstide)” value (“activation in vitro” below) in [1] was “could not”; with GST-MSK1, “could also be activated similarly”.
In the case of activated GST-SAPK4/p38δ, the “activation in vitro” value in data set [1] is recorded as “did not activate”.
With activated GST-SAPK1/JNK1γ, the “activation in vitro” value (in data set [1]; in the data set with GST-MSK1) was “did not activate” each time.
For activated GST-MAPK2/ERK2, the “activity towards Crosstide after incubation with MgATP and activated MAPK2/ERK2” value (in data set [1]; in the data set with GST-MSK1) was “enhanced over 100-fold” each time.
For activated GST-SAPK3/p38γ, the “activation in vitro” value (in data set [1]; with GST-MSK1) was “did not activate” each time.
Take GST-MAPKAP-K2: in the data set on GST-CREB [GST: P08515], the Km result is “the Km was too high to be measured” and the “phosphorylation of Ser98 relative to Ser133 of CREB” value is listed as 10-fold higher level than Ser133. Further, the “phosphorylation of substrate in vitro” value in the data set on heat shock protein 27 is on record as “much more active towards heat shock protein 27”.
GST-MAPKAP-K1a: the “Km relative to MSK1” value in the data set with CREBtide is “Km values that were at least 200-fold higher”. Besides, the Km in the data set with Crosstide is 2 to 3 µM; with GST-CREB [GST: P08515], “the Km was too high to be measured”. Also, the “Km relative to KKRNRTLSVA” value was “increased the Km about 100-fold” in data set [2] and 5 fold in [3]. Moreover, the “Km and Vmax” value in the data set on peptide KKRNRTLSVA was “almost identical Km and Vmax values as for Crosstide”.
As for activated GST-SAPK2b/p38β, the “activation in vitro” value in data set [1] is “could not”; in the data set on GST-MSK1 it was “could also be activated similarly”.

What is called Km is the substrate concentration at which the rate is half of its maximum.
